Test results from patent US7264809B1, “Methods of inhibiting platelet activation and recruitment” (Immunex Corporation, priority 1998, dated 2007).

What was measured:
[1] = Phosphate release assay for ATPase activity; assay type: biochemical; settings: for ATPase activity, CPM × 10^3 (net counts): Table 3, 5-day 1× COS-1 sups
Description: This example describes an ATPase assay that may be used to track enzyme activity. Samples (approximately 100 μl of either concentrated CM or purified polypeptide) are combined with 20 μl of 10× assay buffer (200 mM HEPES, 1.2 M NaCl, 50 mM KCl, 15 mM CaCl2, 15 mM MgCl2 and 3 mM ATP) and sterile water is added to a final volume of 200 μl. Radiolabeled ATP (0.8 μCi γ [^32P] ATP; Amersham, Arlington Heights, Ill.) is added and the mixture incubated for 20 minutes at 37° C. […] After centrifugation (14K rpm for 10 minutes), the supernatant is assayed for free ^32P using a scintillation counter. Data are expressed as raw counts or net counts, or as picomoles of ATP degraded per minute. […] The transfections were repeated and the CM (10, 20 and 30 μL, unconcentrated) was assayed essentially as described in Example 7. […] ATPase levels in CM from COS-1 cells transfected with pIL2LFlagSolCD39 increased with time in culture over at least 4 days post-transfection. To determine whether activity was affected by removal of the N-terminal FLAG® tag, COS-1 cells were transfected with pIL2LFlagSolCD39 and pIL2LSolCD39 and supernatants (sups) were harvested after 5 days. Samples of 10, 20 and 30 μL of 1× sups were assayed for ATPase activity as described in Example 7. […] The expression of Trim1 and Trim2 constructs was analyzed in COS-1 cells cultured in 10 cm plates. After 5 days of incubation, 1× supernatants were examined via ELISA (using anti-CD39) and the phosphate-release assay described in Example 7. […] Expression levels, however, appeared to be reduced 3-4 fold.

[2] = Bleeding time and tolerability in pigs; assay type: in vivo, Yorkshire-Hampshire pigs
Description: Aspirin was administered orally on a daily basis. Placebo controls consisted of aspirin. Saline controls and solCD39 were administered as a single bolus. Time points were measured following this administration. Blood samples were obtained via an external jugular vein catheter. […] ADP-induced platelet aggregation was measured at specific time intervals following administration. The concentration of CD39 in serum as a function of time was measured using an ELISA assay.

B1: solCD39: recombinant soluble human CD39, untagged: 12 mature huIL2 residues, three amino acid linker, sol CD39 (SEQ ID NO:7) (protein)
chain: MALWIDRMQLLSCIALSLALVTNSAPTSSSTKKTQLTSSTQNKALPENVKYGIVLDAGSSHTSLYIYKWPAEKENDTGVVHQVEECRVKGPGISKFVQKVNEIGIYLTDCMERAREVIPRSQHQETPVYLGATAGMRLLRMESEELADRVLDVVERSLSNYPFDFQGARIITGQEEGAYGWITINYLLGKFSQKTRWFSIVPYETNNQETFGALDLGGASTQVTFVPQNQTIESPDNALQFRLYGKDYNVYTHSFLCYGKDQALWQKLAKDIQVASNEILRDPCFHPGYKKVVNVSDLYKTPCTKRFEMTLPFQQFEIQGIGNYQQCHQSILELFNTSYCPYSQCAFNGIFLPPLQGDFGAFSAFYFVMKFLNLTSEKVSQEKVTEMMKKFCAQPWEEIKTSYAGVKEKYLSEYCFSGTYILSLLLQGYHFTADSWEHIHFIGKIQGSDAGWTLGYMLNLTNMIPAEQPLSTPLSHST
ATPase activity, CPM × 10^3 (net counts) ([1]; 10 μL): 20.1 CPM × 10^3 | ATPase activity, CPM × 10^3 (net counts) ([1]; 20 μL): 36.0 CPM × 10^3 | ATPase activity, CPM × 10^3 (net counts) ([1]; 30 μL): 51.0 CPM × 10^3 | Activity (pmol ATP/min/μg) × 10^3 ([1]; specific activity in COS-1 CM, concentration by ELISA): 5.67 (pmol ATP/min/μg) × 10^3 | anemia or thrombocytopenia ([2]; pig, in vivo): did not induce | tolerability ([2]; pigs, 72-670 μg/kg bolus): well tolerated
